Data from patent US20180371086A1.
Substitutions are numbered along the chain they refer to.

B1: PGT121.56 (antibody, human IgG1, lambda)
heavy: QMQLQESGPGLVKPSETLSLTCSVSGASISDSYWSWIRRSPGKGLEWIGYVHKSGDTNYSPSLKSRVNLSLDTSKNQVSLSLVAATAADSGKYYCARTLHGRRIYGIVAFNEWFTYFYMDVWGNGTQVTVSSASTKGPSVFPLAPSSKSTSGGTAALGCLVKDYFPEPVTVSWNSGALTSGVHTFPAVLQSSGLYSLSSVVTVPSSSLGTQTYICNVNHKPSNTKVDKKVEPKSCDKTHTCPPCPAPELLAGPDVFLFPPKPKDTLMISRTPEVTCVVVDVSHEDPEVKFNWYVDGVEVHNAKTKPREEQYNSTYRVVSVLTVLHQDWLNGKEYKCKVSNKALPLPEEKTISKAKGQPREPQVYTLPPSREEMTKNQVSLTCLVKGFYPSDIAVEWESNGQPENNYKTTPPVLDSDGSFFLYSKLTVDKSRWQQGNVFSCSVLHEALHSHYTQKSLSLSPGK
light: not shown
B2: PGT121.60 hIgG1/hLambda (antibody)
heavy: B1 heavy with S60N, N68H, V83T, A84G, A85V, N124T
light: not shown

Key:
Assay in all cases: cell-based or functional assay
[1] = target: Env of 92 subtype B viruses
[2] = target: 22 primary HIV-1 isolates or clones (mean over all viruses of Table 13)
[3] = target: HIV-1 Env (gp120) of 4 primary HIV-1 isolates or molecular clones on infected CEM-NKr-CCR5-LucR CD4 T cells

Row | Binder | Coverage (%) [1] [%] | Median IC95 (neutralization) [1] [µg/mL] | EC50 (µg/mL), killing of HIV-infected cells (Mean; mean over all viruses) [2] [µg/mL] | Emax, killing of HIV-infected cells (Mean; mean over all viruses) [2] [%] | EC50 of killing infected cells, median [3] [µg/mL] | proportion of infected cells killed (Emax), median [3] [%]
1 | B1 | 62 | 0.265 |  |  |  | 
2 | B2 | 59.8 | 0.177 | 1.03 | 56 | > 100 | 18
